Laboratory results from PMC3790000, “The Extended Transmembrane Orai1 N-terminal (ETON) Region Combines Binding Interface and Gate for Orai1 Activation by STIM1*^([image sbox.jpg])^♦” (The Journal of Biological Chemistry, 2013).

Target: T1, YFP-STIM1 233–485 (human, UniProt Q13586-1 233-485)
T1 construct: the YFP fluorescence is the read-out of the thermophoresis; also called STIM1 233–485 C-terminal fragment; slightly extended OASF fragment; source: HEK293, transfected, in lysate (supernatant after Nonidet P40 lysis)
Assay: MST; monolith NT.115 (Nanotemper); YFP-STIM1 233–485 (or free YFP) in HEK293 cell lysate kept constant, Orai1 peptide varied, up to 16 dilutions, 5 min incubation, glass capillaries; curve fitted to a one-site binding model
Settings: one partner purified

T1 sequence (Q13586 233-485): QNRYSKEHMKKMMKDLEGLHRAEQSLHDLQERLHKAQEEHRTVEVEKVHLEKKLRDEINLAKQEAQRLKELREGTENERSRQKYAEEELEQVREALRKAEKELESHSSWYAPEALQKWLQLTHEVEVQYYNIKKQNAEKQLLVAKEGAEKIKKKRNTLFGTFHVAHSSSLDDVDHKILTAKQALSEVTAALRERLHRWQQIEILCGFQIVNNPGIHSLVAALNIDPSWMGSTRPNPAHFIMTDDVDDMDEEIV

Kd	Binder
406 ± 68 µM	SMQAESERKLYLSRAKLKASSR (peptide, UniProt Q96D31-1 70-91, looked up, also called Orai1 NT(aa70–91 L74E/W76E); source: synthetic peptide, bought: peptide 2.0) [Orai1 aa70–91 L74E/W76E N-terminal peptide]
> 4700 µM	RKLYLSRAKLKASSR (peptide, UniProt Q96D31-1 77-91, looked up, also called Orai1 NT(aa77–91); Orai1 aa77–91; source: synthetic peptide, bought: peptide 2.0) [Orai1 N-terminal peptide aa77–91]
